The values that follow come from patent EP4768039A1, “PHARMACEUTICAL COMPOSITION AND USE THEREOF” (Shanghai Regenelead Therapies Co., Ltd., priority 2023, dated 2025).

The first series has as its target Human VEGF-A protein (human) (UniProt P15692). Briefly: cell-based or functional assay.
Chain of UniProt P15692 (P15692 other isoform, or with tags, fused parts or gaps limits assumed): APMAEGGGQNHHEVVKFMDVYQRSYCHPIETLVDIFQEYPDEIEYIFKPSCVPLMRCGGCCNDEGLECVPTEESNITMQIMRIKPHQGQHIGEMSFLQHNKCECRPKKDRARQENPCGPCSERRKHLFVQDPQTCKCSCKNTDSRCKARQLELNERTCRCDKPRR
Details: not given
Compound “PR1010(R1D2-R2D3-linker-R2D2-R2D3-Fc) (from UniProt P01857 104-330) (Fc fusion)” gave a VEGF-A IC50 (nM); VEGF-A-induced NFAT-RE Luc2P KDR reporter cells of 2.71 nM.
“PR1094(R1D2-R2D3-linker-R2D2(C162V)-R2D3-Fc) (from UniProt P01857 104-330) (Fc fusion)” showed a VEGF-A IC50 (nM); VEGF-A-induced NFAT-RE Luc2P KDR reporter cells of 0.34 nM.
Same read-out and setting: to “PR1109(R1D2-R2D3-linker-R2D2(V219I)-R2D3-Fc) (from UniProt P01857 104-330) (Fc fusion)” belongs 0.18 nM.
“PR1114(R1D2-R2D3-linker-R2D2-R2D3(N274I)-Fc) (from UniProt P01857 104-330) (Fc fusion)” had a VEGF-A IC50 (nM); VEGF-A-induced NFAT-RE Luc2P KDR reporter cells of 0.36 nM.
Same read-out and setting: the same measure for “PR1115(R1D2-R2D3-linker-R2D2-R2D3(R275L)-Fc) (from UniProt P01857 104-330) (Fc fusion)”: 0.28 nM.
As for “PR1118(R1D2-R2D3-linker-R2D2-R2D3(D276Q)-Fc) (from UniProt P01857 104-330) (Fc fusion)”, the VEGF-A IC50 (nM); VEGF-A-induced NFAT-RE Luc2P KDR reporter cells was found to be 0.22 nM.
Take “PR1119(R1D2-R2D3-linker-R2D2-R2D3(L277R)-Fc) (from UniProt P01857 104-330) (Fc fusion)”: the VEGF-A IC50 (nM); VEGF-A-induced NFAT-RE Luc2P KDR reporter cells came out at 0.14 nM.
As for “PR1120(R1D2-R2D3-linker-R2D2-R2D3(K278D)-Fc) (from UniProt P01857 104-330) (Fc fusion)”, the VEGF-A IC50 (nM); VEGF-A-induced NFAT-RE Luc2P KDR reporter cells was found to be 0.38 nM.
On the same count and under the same terms, the same measure for “PR1122(R1D2-R2D3-linker-R2D2-R2D3(K278E)-Fc) (from UniProt P01857 104-330) (Fc fusion)”: 0.36 nM; for “PR1123(R1D2-R2D3-linker-R2D2-R2D3(Q280E)-Fc) (from UniProt P01857 104-330) (Fc fusion)”: 0.21 nM; for “PR1124(R1D2-R2D3-linker-R2D2-R2D3(S283T)-Fc) (from UniProt P01857 104-330) (Fc fusion)”: 0.29 nM.
On the same count and under the same terms, the same measure for “PR1125(R1D2-R2D3-linker-R2D2-R2D3(E284H)-Fc) (from UniProt P01857 104-330) (Fc fusion)”: 0.23 nM; for “PR1126(R1D2-R2D3-linker-R2D2-R2D3(F288Y)-Fc) (from UniProt P01857 104-330) (Fc fusion)”: 0.7 nM; for “PR1129(R1D2-R2D3-linker-R2D2-R2D3(M314S)-Fc) (from UniProt P01857 104-330) (Fc fusion)”: 0.67 nM.
On the same count and under the same terms, to “PR1136(R1D2-R2D3-linker-R2D2-R2D3(L313R)-Fc) (from UniProt P01857 104-330) (Fc fusion)” belongs 0.14 nM; to “PR1141(R1D2-R2D3-linker-R2D2(C162V)-R2D3(N274F)-Fc) (from UniProt P01857 104-330) (Fc fusion)”, 1.14 nM.
On to “PR1142(R1D2-R2D3-linker-R2D2(C162V)-R2D3(N274I)-Fc) (from UniProt P01857 104-330) (Fc fusion)”, for which the VEGF-A IC50 (nM); VEGF-A-induced NFAT-RE Luc2P KDR reporter cells amounted to 0.99 nM.
Still for that read-out and setting: to “PR1143(R1D2-R2D3-linker-R2D2(C162V)-R2D3(R275L)-Fc) (from UniProt P01857 104-330) (Fc fusion)” belongs 0.84 nM; to “PR1146(R1D2-R2D3-linker-R2D2(C162V)-R2D3(L289Y)-Fc) (from UniProt P01857 104-330) (Fc fusion)”, 0.98 nM.
“PR1147(R1D2-R2D3-linker-R2D2(C162V)-R2D3(L313Y)-Fc) (from UniProt P01857 104-330) (Fc fusion)”: the VEGF-A IC50 (nM); VEGF-A-induced NFAT-RE Luc2P KDR reporter cells stood at 1.16 nM.
Still for that read-out and setting: to “PR1148(R1D2-R2D3-linker-R2D2(C162V)-R2D3(L277R/L289Y)-Fc) (from UniProt P01857 104-330) (Fc fusion)” belongs 1.49 nM; to “PR1149(R1D2-R2D3-linker-R2D2(C162V/Y221S/R222K)-R2D3-Fc) (from UniProt P01857 104-330) (Fc fusion)”, 0.82 nM.
Still for that read-out and setting: to “PR1150(R1D2-R2D3-linker-R2D2(C162V)-R2D3(L313R)-Fc) (from UniProt P01857 104-330) (Fc fusion)” belongs 0.81 nM.
Turning to “PR1165(R1D2-R2D3-linker-R2D2(C162I)-R2D3-Fc) (from UniProt P01857 104-330) (Fc fusion)”, the VEGF-A IC50 (nM); VEGF-A-induced NFAT-RE Luc2P KDR reporter cells came to 0.92 nM.
Take “PR1166(R1D2-R2D3-linker-R2D2(C162L)-R2D3-Fc) (from UniProt P01857 104-330) (Fc fusion)”: the VEGF-A IC50 (nM); VEGF-A-induced NFAT-RE Luc2P KDR reporter cells was 1.12 nM.
Still for that read-out and setting: to “PR1167(R1D2-R2D3-R2D2(C162V)-R2D3(N274F/S283T)-Fc) (Fc fusion)” belongs 1.1 nM; to “PR1168(R1D2-R2D3-R2D2(C162V/Y221S/R222K)-R2D3(N274F)-Fc) (Fc fusion)”, 1.15 nM.
Still for that read-out and setting: the same measure for “PR1169(R1D2-R2D3-R2D2(C162V/Y221S/R222K)-R2D3(S283T)-Fc) (Fc fusion)”: 0.9 nM; for “PR1170(R1D2-R2D3-R2D2(C162V/Y221S/R222K)-R2D3(N274F/S283T)-Fc) (Fc fusion)”: 0.89 nM; for “PR1171(R1D2-R2D3-linker-R2D2(C162V)-R2D3(N274F/S283T)-Fc) (from UniProt P01857 104-330) (Fc fusion)”: 1.09 nM.
The same measure, in the same setting: to “PR1172(R1D2-R2D3-linker-R2D2(C162V/Y221S/R222K)-R2D3(N274F)-Fc) (from UniProt P01857 104-330) (Fc fusion)” belongs 0.92 nM.
With “PR1173(R1D2-R2D3-linker-R2D2(C162V/Y221S/R222K)-R2D3(S283T)-Fc) (from UniProt P01857 104-330) (Fc fusion)”, the VEGF-A IC50 (nM); VEGF-A-induced NFAT-RE Luc2P KDR reporter cells stood at 1.08 nM.

Test system in the next series: not listed separately
In words: Temperature sensitivity of pH of different buffers. Format: physicochemical. The conditions noted are these: buffer working solutions, 2 °C to 30 °C; FIG. 17. How it is done:
• 1. About 3 mL of each of different buffers was added to a centrifuge tube. The pH value in the process of cooling from 30 °C to about 2 °C was measured with a pH meter in an ice-water bath and recorded, and then the pH change in the process of heating the solution from 2 °C to 30 °C was recorded. Table 30. Buffering ranges of different buffers
For the compound `OCC(CO)(CO)NCCCNC(CO)(CO)CO` [BTP, bis-tris propane], the “pH decrease as the temperature increased by 1 °C” value is listed as “about 0.024”.
Still for that read-out and setting: to `O=S(=O)(O)CCN1CCN(CCO)CC1` [HEPES, N-2-hydroxyethylpiperazine-N'-2-ethanesulfonic acid] belongs “about 0.001”.
On the same count and under the same terms, the same measure for `NC(CO)(CO)CO` [Tris]: “about 0.024”.

Test system in another series: not given
Assay: not given
The settings on record: pH range of the buffer system; cited from earlier work.
For `OCC(CO)(CO)NCCCNC(CO)(CO)CO` [BTP, bis-tris propane], the Buffering range was 6.3-9.5.
Regarding `O=S(=O)(O)CCN1CCN(CCO)CC1` [HEPES, N-2-hydroxyethylpiperazine-N'-2-ethanesulfonic acid], the Buffering range is 6.8-8.2.
Regarding `NC(CO)(CO)CO` [Tris], the Buffering range was 7.0-9.2.
